One test concerns C. elegans. The experiment in a line: C. elegans feeding bioassay. Type of test: in vivo, Caenorhabditis elegans. Particulars: cleaved peptides; concentrations based on Bradford (BSA standard), assume 100% cleavage of the MBP-Kistrin fusion. On the procedure:
A number of polypeptides were recombinantly expressed in E. coli and then screened in a nematode bioassay.
C. elegans feeding bioassays. Screening was performed in high throughput using E. coli expressed material, corresponding to the predicted mature regions of various small peptides. Expression of biologically functional polypeptides involved producing a fusion protein that included a maltose-binding protein (MBP) and a polypeptide of interest and subsequently cleaving the fusion protein at a protease recognition sequence to release the peptide of interest. DNA encoding the polypeptide of interest was fused to the C-terminus of the MelE gene in the E. coli expression vector pMAL (New England Biolabs; see, Guan et al., Gene 67:21-30 (1987); and Maina et al., Gene 74:365-73 (1988)). Sequences encoding the cleavage site of proteases Factor Xa or Genenase I were incorporated between the genes of MBP and the polypeptide of interest. A histidine tag was also added to the N-terminus of MBP.
The constructed plasmid vector was transformed into cells of E. coli XL-1 Blue and transformants were grown in 2YT medium containing 50 μg/mL carbenicillin to a cell density of OD600=0.6-0.9. Expression of the fusion protein was induced by addition of IPTG into the culture to a final concentration of 1 mM. Cells were grown for 4-16 hours to saturation before harvesting. Cells were harvested by centrifugation and then lysed with B-PER reagent (Pierce Chemicals, Rockford, Ill.) to obtain the fraction of soluble proteins. The fusion protein was purified from the cell lysate supernatant utilizing the histidine tag by incubating the cell lysate with Ni-NTA agarose resins for 20 minutes to 1 hour. The resins were washed with Tris buffer to remove all unbound proteins. Two-mercaptoethanol (10 mM) was included in the lysis and washing buffers to allow partial refolding of the proteins. Elution of the bound fusion protein was performed with buffer containing 20-40 mM […]. To release the polypeptide of interest, the purified fusion protein was incubated with Factor Xa or Genease I (RT, 8-24 hours). The cleaved protein sample was then used in nematode activity assays.
Hit characterization. Approximate IC50's (in μg/mL) for 4 hits determined from C. elegans bioassay using cleaved peptides. Concentrations were determined based on Bradford (BSA standard) and assume 100% cleavage of the MBP-Kistrin fusion.

For another test, the system named is Botrytis cinerea. The experiment in a line: Anti-fungal bioassay (primary screening). Type of test: cell-based. Set-up: key: 0 = no effect; 1 = partial growth inhibition; 2 = strong inhibition. The conditions noted are these: protease-cleaved fusion protein samples, scored after 18 to 48 hours. As for the experimental part: (§1) The same polypeptides of Example 1 which were recombinantly expressed in E. Coli were also screened in an anti-fungal bioassay against five selected fungal pathogens.
(§2) All fungal strains were grown and maintained on potato dextrose agar (PDA) plates, in a 30° C. incubator. These plates were kept in smaller secondary containers (per fungal strain), with moist paper towels to maintain high humidity. Spores were harvested in a quarter strength of potato dextrose broth (PDB) after about 2 weeks of growth, counted using a hemacytometer, and subsequently stored in small aliquots at −80° C.
(§3) The frozen spores were diluted to the working concentration (determined empirically for each fungal strain), in a quarter strength of PDB, and 50 μL (per well) were added to sterile, flat-bottomed 96-well assay plates. The assay plates were incubated in the humid boxes at room temperature for 5-7 hours to allow the spores to germinate. Serial dilutions of purified, protease-cleaved fusion protein samples were then added to the assay plates, in 50 μL volumes, for a final assay volume of 100 μL per well. The assay plates were allowed to incubate overnight, in a humid box, at 30° C. Antifungal activity was scored after 18 to 48 hours, depending upon the strain of fungus.

The next test concerns Verticillium dahliae. The experiment in a line: Anti-fungal bioassay (primary screening). Type of test: cell-based. Set-up: key: 0 = no effect; 1 = partial growth inhibition; 2 = strong inhibition. The conditions noted are these: protease-cleaved fusion protein samples, scored after 18 to 48 hours. As for the experimental part:
as §1, §2, §3

The subject of the next test is Fusarium verticillioides. Put plainly: Anti-fungal bioassay (primary screening). Particulars: protease-cleaved fusion protein samples, scored after 18 to 48 hours. Type of test: cell-based. Details: key: 0 = no effect; 1 = partial growth inhibition; 2 = strong inhibition. As for the experimental part: as §1, §2, §3
The next test relates to Alternaria brassicicola. The experiment in a line: Anti-fungal bioassay (primary screening). Type of test: cell-based. Details: key: 0 = no effect; 1 = partial growth inhibition; 2 = strong inhibition. Particulars: protease-cleaved fusion protein samples, scored after 18 to 48 hours. As for the experimental part:
as §1, §2, §3

The subject of the next test is Fusarium oxysporum. The experiment in a line: Anti-fungal bioassay (primary screening). Type of test: cell-based. Set-up: key: 0 = no effect; 1 = partial growth inhibition; 2 = strong inhibition. Particulars: protease-cleaved fusion protein samples, scored after 18 to 48 hours. On the procedure: as §1, §2, §3

The results in this text go back to US7301069B2, “Methods of protecting plants from pathogenic fungi and nematodes” (Pioneer Hi-Bred International, Inc., priority 2004, dated 2007).

B1: Kis10: Kistrin polypeptide of SEQ ID NO: 10 from Petunia x hybrida, predicted mature region, recombinantly expressed in E. coli as cleaved MBP fusion (protein)
chain: GSLKPSQCLPQCTRRCSQTQYHNACMLFCQKCCNKCLCVPPGFYGNKGVCPCYNNWKTKEGGPKCP
modifications: Petunia x hybrida; PEPTIDE (0)...(0) Kis10 mature peptide
For B1, in the test with C. elegans, the “Approximate IC50 from C. elegans bioassay” value (from here on “Approximate IC50”) was found to be 30 µg/mL. Besides, in the test with Botrytis cinerea, the “Antifungal score, Botrytis cinerea” value came out at 0. In the test with Verticillium dahliae, the “Antifungal score, Verticillium dahliae” value is reported as 0. Moreover, the “Antifungal score, Fusarium verticillioides” value with Fusarium verticillioides came to 0. Moreover, in the test on Alternaria brassicicola, the “Antifungal score, Alternaria brassicicola” value was 0. The “Antifungal score, Fusarium oxysporum” value in the test with Fusarium oxysporum worked out at 0.

B2: Kis2: Kistrin polypeptide of SEQ ID NO: 1 from Arabidopsis thaliana, predicted mature region, recombinantly expressed in E. coli as cleaved MBP fusion (protein, listed as Arabidopsis thaliana)
chain: GKLKPQQCNSKCSFRCSATSHKKPCMFFCLKCCKKCLCVPPGTFGNKQTCPCYNNWKTKEGRPKCP
modifications: PEPTIDE (0)...(0) Kis2 mature peptide
With B2, the “Approximate IC50” value in the test on C. elegans was determined as 15 µg/mL. Besides, the “Antifungal score, Botrytis cinerea” value in the test with Botrytis cinerea came to 0. For the same molecule, the “Antifungal score, Verticillium dahliae” value in the test with Verticillium dahliae is recorded as 0. For the same molecule, the “Antifungal score, Fusarium verticillioides” value in the test on Fusarium verticillioides came to 0. For the same molecule, the “Antifungal score, Alternaria brassicicola” value with Alternaria brassicicola was 0. The “Antifungal score, Fusarium oxysporum” value with Fusarium oxysporum is recorded as 0.

B3: Kis5: Kistrin polypeptide of SEQ ID NO: 4 from Picea mariana (black spruce), predicted mature region, recombinantly expressed in E. coli as cleaved MBP fusion (protein, listed as Picea mariana)
chain: GSLRPSECGQRCSYRCSATSHKKPCMFFCQKCCAKCLCVPPGTFGNKQVCPCYNNWKTQQGGPKCP
modifications: PEPTIDE (0)...(0) Kis5 mature peptide
As for B3, the “Approximate IC50” value in the test with C. elegans was 75 µg/mL. Besides, the “Antifungal score, Botrytis cinerea” value in the test with Botrytis cinerea came to 0. Further, the “Antifungal score, Verticillium dahliae” value in the test on Verticillium dahliae is on record as 2. Moreover, the “Antifungal score, Fusarium verticillioides” value in the test on Fusarium verticillioides was determined as 0. Further, in the test with Alternaria brassicicola, the “Antifungal score, Alternaria brassicicola” value is listed as 0. Further, the “Antifungal score, Fusarium oxysporum” value with Fusarium oxysporum is 1.

B4: Kis6: Kistrin polypeptide of SEQ ID NO: 7 from Arabidopsis thaliana, predicted mature region, recombinantly expressed in E. coli as cleaved MBP fusion (protein, listed as Arabidopsis thaliana)
chain: GYAKKIDCGSACVARCRLSRRPRLCHRACGTCCYRCNCVPPGTYGNYDKCQCYASLTTHGGRRKCP
modifications: PEPTIDE (0)...(0) Kis6 mature peptide
Consider B4, for which the “Approximate IC50” value in the test on C. elegans was found to be 150 µg/mL. In the test on Botrytis cinerea, the “Antifungal score, Botrytis cinerea” value was 0. Besides, the “Antifungal score, Verticillium dahliae” value with Verticillium dahliae came to 1. The “Antifungal score, Fusarium verticillioides” value in the test with Fusarium verticillioides is on record as 0. Besides, the “Antifungal score, Alternaria brassicicola” value with Alternaria brassicicola is given as 0. The “Antifungal score, Fusarium oxysporum” value in the test on Fusarium oxysporum is on record as 0.
